Data: the nanobody polyreactivity screen of Harvey et al. (2022)

Assay: yeast display, Sf9 membrane polyspecificity reagent, FACS + sequencing; frameworks hold sequencing errors
Summary of the method: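 Polyreactivity labels are assigned by the sorting gate from which each nanobody was recovered. The gates were low and high (top ~1%), set on anti-HA fluorescence for expression and streptavidin fluorescence for reagent binding. Before sorting, galactose-induced (36–48 hours) yeast display cells were stained for 1 hour at 4 °C with 10% biotinylated, detergent-solubilized Sf9 membrane reagent.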

Sequence	polyreactivity (PSR sort gate)
QVQLVESGGCLVQAGGSLRLSCAASGRMFWSNARGWYRQARGYERELVAAMRNTGSTYYADSVKGRFTISRDNAKNTVYLQMNSLKPEETAVYYCATKPYPYYLYYYWGQGTQVTVSS	high polyreactivity
QVQLVESGGCLVQAGGSLRLSCAASGRTFFGYAMGWYRQAPGKERELVAALTRGGSTNYADSVKGRFTFSRDNAKNTVYLQMNSLKPEDTAVYYCNAERYRSRRYPYRYLYYYWGQGTQVTVSS	high polyreactivity
QVQLVESGGCLVQAGGSLRLSCAASGRTFFNYGMGWYRQAPGKEREFVARISFSGGSTYYADSVKGRFTISRDNAKNTVFLQMNSLIPEDTAVYYCNARVFPVAYRYGYWGQGTQVTVSS	high polyreactivity
QVQLVESGGCLVQAGGSLRLSCAASGRTFRYYAMGWYRQAPGKERELVAAITGGGGSTYYADSVKGRFTISRDNAKNTVYLQMNSLKPEDTAVYYCNKLRYKQWGAQYPMDYWGQGTQVTVSS	high polyreactivity
QVQLVESGGCLVQAGGSLRLSCAASGRTFSRNAMGWYRQAPGKERELVAAISQRGVYTYYADSVKGRFTISRDNAKNTVYLQMNRLKPEDSAVYYCNTRGTYRYDYWGQGTQVTVSS	low polyreactivity
QVQLVESGGCLVQAGGSLRLSCAASGRTFVGYVMGWSRQAPGKERELVAAIRTGGRTHYADSVKGRFTISRDNAKNTVYLQMNSLKPEDTAVYYCNARASYSWHGIRGNYDYWGQGTQVTVSS	high polyreactivity
QVQLVESGGCLVQAGGSLRLSCAASGRTFYGNDMGWYSQAPGTERELVAAISSSGGSTYYADSVKGRGTISRDNGKNTVYLQMKSLKPEDTAVYYCNAYWRGFRLSYYEDSYYWGQGTQVTVSS	high polyreactivity
QVQLVESGGCLVQAGGSLRLSCAASGRTFYINTMGWYRQAPGKEREFVAAIRFSSDSTYYADSVKGRYTISRDNAKNTVYLQMNSLKPEDTAVYYCATRTYAQRYGYWGQGTQVTVSS	high polyreactivity
QVQLVESGGCLVQAGGSLRLSCAASGRTFYTYAIGWYRQAPGQERELVAGIRTGGGSTYYADSVKGRFTISRDNAKNTVYLQMNSLKPEDTAVYYCAADTYDGYDYWGQGTQVTVSS	low polyreactivity
QVQLVESGGCLVQAGGSLRLSCAASGSIFNRYTMGWYRQAPGKEREFVAAISSSGTSTYYADSVKGRFTISRDNAKNTVYLQMNILKPEDTAVYYCAADWTGGFYTWYVIPYDYWGQGTQVTVSS	low polyreactivity
QVQLVESGGCLVQAGGSLRLSCAASGSIFRRNAMGWSRQAPGKERELVAAISRTGGSTYYADSVKGRFTISRDNAKNTVYLQLNSLKPEDTAVYYCNTYSDYADDDYWGQGTQVTVSS	high polyreactivity
QVQLVESGGCLVQAGGSLRLSCAASGSIFSSYQMGWYRQAPGKQRELVEAISSGGSTNYADSVKGRFTISRDNAKNTVYLQMHRLKPEDTAVYYCNVDLFNWGGDSTGYDYWGQGTQVTVSS	low polyreactivity
QVQLVESGGCLVQAGGSLRLSCAASGSIIYCYAMGWYRQAPGKERELVADISRGGITYYADSVKGRFTISRDNAKNTVYLQMNSLKPEDTAVYYCSKTHYGVQRLDSWGQGTQVTVSS	low polyreactivity
QVQLVESGGCLVQAGGSLRLSCAASGSIMYSYAMAWYRQAPGQERELVAAITGDGASTNYADYVKGRFTISRDNAKNTVYLQMNSLKPEDTAVYYCNAGRESDDVYEGSQRIGQFDYWGQGTQVTVSS	low polyreactivity
QVQLVESGGCLVQAGGSLRLSCAASGSTFGVNAMGWYRKAPGKERELVADISVRTDSTYYADSVKGRFTISRDNAKNTVYLQMNSLKAEDTAVYDCNAGLVIEYDYWGQGTQVSVSS	low polyreactivity
QVQLVESGGCLVQAGGSLRLSCAASGSTFLGNAMGWYRQAPGKERELVAGITSGGTTNYADSVKGRFTISRDNAKNTVYLQMNSLKPEDTAVYYCNADVWIGQLFDPGYDFDYWGQGTQVTVSS	low polyreactivity
QVQLVESGGCLVQAGGSLRLSCAASGSTFPIYAMGWYRQAPGKERELVARITWNGGRTYYADSVKGRFTISRDNAKNTVYLQMNSLKPEDTAVYYCNALYYHNLEGNYWGQGTQVTVSS	high polyreactivity
QVQLVESGGCLVQAGGSLRLSCAASGSTFTPYVMGWYRHAPGKERELVAAISKRGGSTYYADSVKGRFTISRDNAKNTVYLQMNRLKPEDTAVYYCAAVQPAWGNGYWGQGTQVTVSS	high polyreactivity
QVQLVESGGCLVQAGGSLRLSCAASGSTFYLNAMGWYRQAPGKEREMVAAITVSGGSTYYADSVKGRFTISRDNAKNTVYLQMNSLKPVDTAVYFCSRELLCPTYQRWYYYWGLGTQVTVSS	low polyreactivity
QVQLVESGGCLVQAGGSLRLSCAASGSTLGYYVMGWYRQAPGKERELFAAITGCGSTDYADSVKGRFTISRDNAKNTVYLQMNSLIPEDTAVYYCAAERTRTGQLFWWGPIYDYWGQGTQVTVSS	low polyreactivity
QVQLVESGGCLVQAGGSLRLSCAASGSTLVIYAMGWYRQAPGKESELVAAINFSDGSTSYADSVKGRFTISRDNAKNTVYLQMNSLKPEDTAVYYCAADWWYGYSNYDYWGQGTQVTVSS	low polyreactivity
QVQLVESGGCLVQAGGSLRLSCAASGYIFYGYAMGWYRQAPGKERELVAAITVRGGSTYYADSVKGRFRISRDNAKNTVYLQMNSLKPQDTAVYYCAAAPQFTFGVGYWGQGTQVTVSS	low polyreactivity

Sequence	polyreactivity (PSR sort gate)
QVQLVESGGCLVQAGGSLRLSCAASGYTIRYYSMGWYRQAPGKERELVAAISYSGGSTYYADSVKGRFTISRDNAKNTVYLQMNIMKPEDTAVYYCDAGFSLYLGFEYWGQGTQVTVSS	high polyreactivity
QVQLVESGGCLVQAGGSLRLSCAATGSTLGSYAMGWYRQAPGKERELVAAITFLGGSTYYADSVKGRFTSSRDNAKNTVYLQMNSLKPEDSAVYYCAARFLRVLFNLVFIYDYWGQGSQVTVSS	high polyreactivity
QVQLVESGGCLVQAGGSLRLSCADSGIIYYYYAMGWYRQAPGKERELVAAISTSGGRTYYADSVKGRFTISRDNAKNTVYLQMNSLKPEDTAVYYCAADYLKGEEDYWGQGTQVSVSS	low polyreactivity
QVQLVESGGCLVQAGGSLRLSCASSGNIFTIYTMGWYRQAPGKERELVASIYRGGTTYYADSVKGRFTISRDNAKNTVYLQMNSLKPEDTAVYYCAVYSPRLRRVHTRGYWGQGTQVTVSS	high polyreactivity
QVQLVESGGCLVQAGGSLRLSCASSGRIFRGYAMGWSRQAPGKERELVAVISYSGTRTYYADSVKGRFTNSRDIAKNTVYLQMNSLKPEETAVYYCNARANGFKDGYWGQGTQVTVSA	high polyreactivity
QVQLVESGGCLVQAGGSLRLSCDASGSTFLTNTMGWYRQPPGKERELVAAISSGDSTYYADSVKGRFTISRDNAKNTVYLQMNSLKPEVTAVYYCARDVGWRNVPRDYWGQGTQVTVSS	low polyreactivity
QVQLVESGGCLVQAGGSLRLSCPASGFTLPANGMGWYRQAPGKERELVAAISFIAGSTYYADSVKGRFTISRDNAKNTVYLQMNSLKPEDTEVYYCATQFPPSTIYDYWGQGSQVTVSS	low polyreactivity
QVQLVESGGCLVQAGGSLRLSGAASGRTQVPYAMGWSRQAHGNERELVASISSGGSTNYADSVKGRFTISRDNAKNTVYLQMNSLKPEDTAVYYCNAEPIGSEVDYWGQGTQVTVAS	low polyreactivity
QVQLVESGGCLVQAGGSLRLSWAASGRTLGGYALGWYRQAPGKERELVAAINRSGTRTYYADSVKGRFTISRDKAKNTVYLQFNSLKPEDTAVYYCAASWYPGSRNYDYGGQGTQVTVSS	high polyreactivity
QVQLVESGGCLVQAGGSLRLTCAASGRIFDLYTMGWYRQATGIERELVAGIYGNGDGTYADSVKGLFTISRDNAKNPVYLQMNSLKPEDTAVYYCAADGIYIYHPYTRFDYCGQGTQVTVSS	low polyreactivity
QVQLVESGGCLVQAGGSLRLTCAASGRIFRGNVMGWYRQAPGKERELVAAISGRGGNTYYADSVKGRFTISRDNAKNTVYLQMNSLKPEDTAVYYCAATRKDDYQYGYWGQGTQVTVSS	high polyreactivity
QVQLVESGGCLVQAGGSLRLTCAASGSTFDRKARGWYRQAPGKERELVAAITKSGGSTYYADSVKGRFTISRDNAKNTVYLQMNSLKPEDTAVYYCKEFYRAVYPYYYWGQGTQVTVSS	low polyreactivity
QVQLVESGGCLVQAGGSLRLTCAASGSTFGYEGRGWYRQAPGKERELVASIDSRCDSTYADSVKGRFTISRDNAKNTVYLQMNSLKPEDTAVYYCAADSWYTWFDSWGQGTQVTVSS	low polyreactivity
QVQLVESGGCLVQAGGSLSLSCAASGSTFPYPYTIGWYRQAPGKERELVAVISRTGGSTFYADSVKGRFTISRDNAKNTVFLQINSLKPEDTAVYYCARQRYEYRTTYYYWGLGTQVTVSS	high polyreactivity
QVQLVESGGCLVQAGGTLRLSCAASGFIFYHNAMGWYRQAPGKERELVAAISGSGGSTHYADSVKGRFTISRDNAKNSVYLQMNSLKPEDTAVYYCARRFWFHYYGYDYWGQGSQVTVSS	high polyreactivity
QVQLVESGGCLVQAGGTLRLSCAASGRTFIVYSMGWYRPAPGKERELVAAITTSVGRTYYADSVKGRFTISRDNAKNTVFLQMISLKPEDTAVYYCADDLLDGYSEYSYWGQGTQVTVSS	low polyreactivity
QVQLVESGGCLVQAGRSHRLSCAASGRIFYGYALGWYRQAPGKERELVAAITRSSSTYYADSVKGRFTISRDNAKNTVYLQMNSLKPEDTAVYYCNAYSWYGYDYWGQGTQVTVSS	high polyreactivity
QVQLVESGGCLVQAGRSLRLRCAASARTIGSNAMGCYRQAPGKARELVDAISSRGGSTYYADSVKGRITISRDNAKNTVYLQMNSLYPEDTAVYYCDSEYYPHTTYLSDNWGQGTQETVSS	high polyreactivity
QVQLVESGGCLVQARGSLRLSCASSGSTFGRNAMGWYRQAPGKERELVASISRRGGSTYYADSVKGRFTISRDNAKNTVYLQMNSLKPEDTAVYYCNRVQFSPVYRFREYDYWGQGTQVTVSS	high polyreactivity
QVQLVESGGDLVQAGGSLRLSCAASGITFYVNTMGSYRPAPGKERELVAAIDWTDGGTYYADSVKGRFTISRDNAKNTVYLQMNSLKPEDTAVYYCAREYYWDIKGLYGYLAYDLDYWGQGSQVTVSS	low polyreactivity
QVQLVESGGGFDQAGGSLRLSCAASGSIFSGYAMGWYRQAPGKETELVAAINWSGGRTYYADSVKGRFTISRDNEKNTVYLQMKSLKPEDTAVYYCAAAGARSIYRMDYWGQGTQVTVSS	high polyreactivity
